Results from publication PMC3149608, “A Novel Acyl-CoA Beta-Transaminase Characterized from a Metagenome” (PLoS ONE, 2011).

Experiments:
[1] = molecular target: T1, Kat (HemL-like), 3-aminobutyryl-CoA aminotransferase (Cloacimonas acidaminivorans (SeqCode), UniProt B0VH76); test: spectrophotometric, acetoacetyl-CoA formation at […] nm; format: biochemical; settings: 25 µM (3S)-3-aminobutyryl-CoA; 50 mM Tris/HCl pH 8.1, 5 mM MgCl2
T1 construct: full-length CDS in pEXP-5-NT/TOPO, E. coli; by primers starts (M)AEKLKLA, ends EVKKML
T1 sequence (B0VH76 1-414): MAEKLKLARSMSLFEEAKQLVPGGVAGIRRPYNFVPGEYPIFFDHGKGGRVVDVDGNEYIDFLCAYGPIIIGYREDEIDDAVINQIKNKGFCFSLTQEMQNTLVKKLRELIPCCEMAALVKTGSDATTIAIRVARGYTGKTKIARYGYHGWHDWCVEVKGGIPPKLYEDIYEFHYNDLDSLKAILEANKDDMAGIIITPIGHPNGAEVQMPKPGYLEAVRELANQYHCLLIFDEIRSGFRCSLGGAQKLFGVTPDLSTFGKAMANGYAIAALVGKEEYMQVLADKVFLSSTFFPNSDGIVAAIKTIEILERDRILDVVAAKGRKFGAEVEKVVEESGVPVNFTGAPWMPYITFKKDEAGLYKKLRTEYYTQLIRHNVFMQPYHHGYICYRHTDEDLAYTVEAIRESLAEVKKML

[2] = molecular target: T2, AtoA/AtoD complex (butyrate-acetoacetate CoA transferase) (Cloacimonas acidaminivorans (SeqCode), UniProt B0VIH1+B0VIH2); test: CoA transferase assay, acetoacetyl-CoA formation at […] nm; format: biochemical; settings: 4 mM MgCl2, 50 mM Tris/HCl pH 8.1
T2 construct: each subunit in pEXP-5-NT/TOPO, E. coli, mixed equimolar; by primers AtoA (M)ALDKRAM...ERVNTF, AtoD (M)VQIISA...VLAKEN
T2 sequence (B0VIH1 1-218): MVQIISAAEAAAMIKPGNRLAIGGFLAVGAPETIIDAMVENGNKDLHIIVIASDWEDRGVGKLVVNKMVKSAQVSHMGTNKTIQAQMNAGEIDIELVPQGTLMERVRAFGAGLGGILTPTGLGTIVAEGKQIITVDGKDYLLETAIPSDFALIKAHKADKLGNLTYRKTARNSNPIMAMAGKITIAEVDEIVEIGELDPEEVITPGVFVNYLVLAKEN
T2 sequence (B0VIH2 1-217): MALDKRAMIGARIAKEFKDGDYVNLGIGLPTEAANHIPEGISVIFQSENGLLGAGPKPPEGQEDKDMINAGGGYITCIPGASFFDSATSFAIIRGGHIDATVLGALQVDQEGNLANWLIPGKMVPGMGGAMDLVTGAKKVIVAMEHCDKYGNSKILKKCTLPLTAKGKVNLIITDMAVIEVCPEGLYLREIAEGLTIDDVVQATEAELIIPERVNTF

purified protein [3] = substrate: C[C@H](N)CC(=O)SCCNC(=O)CCNC(=O)[C@H](O)C(C)(C)COP(=O)(O)OP(=O)(O)OC[C@H]1O[C@@H](n2cnc3c(N)ncnc32)[C@H](O)[C@@H]1OP(=O)(O)O; test: purified protein; format: biochemical, Cloacimonas acidaminivorans (SeqCode); settings: 50 mM α-ketoglutarate, 50 mM Tris/HCl pH 8.1, 5 mM MgCl2
purified protein [4] = substrate: O=C(O)CCC(=O)C(=O)O; test: purified protein; format: biochemical, Cloacimonas acidaminivorans (SeqCode); settings: 25 µM (3S)-3-aminobutyryl-CoA, 50 mM Tris/HCl pH 8.1, 5 mM MgCl2

`CC(=O)C(=O)O` [pyruvate] was tested, and the “K m (M)” value [1] was 20.1±1.3 10^−3 M.

`CC(=O)SCCNC(=O)CCNC(=O)[C@H](O)C(C)(C)COP(=O)(O)OP(=O)(O)OC[C@H]1O[C@@H](n2cnc3c(N)ncnc32)[C@H](O)[C@@H]1OP(=O)(O)O` [acetyl-CoA] was tested, and the “CoA transferase assay, acetoacetyl-CoA formation at 310 nm” value ([2]; 10 mM acetoacetate) was “formation in vitro of acetoacetyl-CoA and acetate from acetoacetate and acetyl-CoA”.

`CC(=O)CC(=O)O` [acetoacetate] was tested, and the “CoA transferase assay, acetoacetyl-CoA formation at 310 nm” value ([2]; acetyl-CoA as CoA donor) was “formation in vitro of acetoacetyl-CoA and acetate from acetoacetate and acetyl-CoA”.

B1: Kat (HemL-like), 3-aminobutyryl-CoA aminotransferase (Candidatus Cloacimonas acidaminivorans str. Evry) (protein)
chain: T1 sequence (B0VH76 1-414)
notes: full-length CDS in pEXP-5-NT/TOPO, E. coli; by primers starts (M)AEKLKLA, ends EVKKML
B1 gave a kcat (purified protein [3]) of 1.8 ± 0.2 s⁻¹, a kcat/Km (purified protein [3]) of 420000 M⁻¹ s⁻¹ and a kcat (purified protein [4]) of 1.8 ± 0.1 s⁻¹. The kcat/Km (purified protein [4]) was 620 M⁻¹ s⁻¹.
